Assay results: PMC2747663

How the values were obtained:
[1] = target: soluble extracellular domains (ECD) of ERBB3, V5 and His6 epitope-tagged (human) (UniProt P21860); assay: cross-linking
[2] = target: full-length ERBB3 (pIND/TRE-based), recombinant and overexpressed in CHO cells (human) (UniProt P21860); assay: cross-linking

stoichiometry N [1]	stoichiometry N [2]	Substance
2	–	soluble extracellular domains (ECD) of ERBB3, V5 and His6 epitope-tagged (from UniProt P21860 20-643) (domain or fragment)
–	2	full-length ERBB3 (pIND/TRE-based), recombinant and overexpressed in CHO cells (from UniProt P21860 20-1342) (receptor)
